# In patent US10729768B2, “Combination of anti-CD20 antibody and PI3 kinase selective inhibitor” (TG Therapeutics, Inc., priority 2012, dated 2020):
# Columns and labels:
# CD20+ cells = assay: LPS-induced proliferation in HWB, flow cytometry, CD20; type: cell-based; conditions: Homo sapiens, 72 hrs
# Raji Cells = assay: in situ caspase-3 kit, caspase 3 activity and combination index (Example 5); type: cell-based; conditions: 24 hrs; for Caspase 3 Activity: Raji cells
# Experimental: (§1) In order to determine the effect of S-isomer of a compound of formula A, UBX, and combinations thereof on apoptosis in cancer cells, an in situ caspase-3 kit (Millipore) was used. CELLS were plated in a 6 well plate at a concentration of 0.5×10^6 cells/ml, treated with either S-isomer of a compound of formula A (200-5000 nM), UBX (10,000 ng/ml to 10 ng/ml), or UBX with S-isomer of a compound of formula A (as indicated), and incubated for 24 hrs at 37° C. and 5% CO2. The cells were then transferred to microfuge tubes to receive 10 μl of freshly prepared FLICA™ reagent and incubated for 1 hour at 37° C. and 5% CO2 away from light. After extensive washes with wash buffer, test samples were adjusted to equalize the number of cells in PBS. 100 μl of each cell suspension was transferred to black 96-well plates in duplicates, and the fluorescence was read at an excitation wavelength of 490 nm and an emission wavelength of 520 nm in a plate reader. The fluorescence intensity for a DMSO control was subtracted from that of test compounds. Data was expressed as caspase-3 activity a combination index (C.I.) calculated.
# LY1 Cells = assay: as above; type: cell-based; conditions: for Caspase 3 Activity: LY1 cells, 24 hrs
# Experimental: as §1
# B-cells = assay: cytotoxicity to B-cells; type: cell-based; conditions: concentrations up to 10 μM
# [1] = test system: U266B1, DB, Raji, and Daudi cells; assay: cell cycle assay, flow cytometry, cell-lines tested; type: cell-based; conditions: 72 hrs
# Experimental: A cell cycle assay reagent (Millipore) was used to determine the effect of S-isomer of a compound of formula A, UBX, and combinations thereof on the cell cycle in cancerous cells. In these experiments, cells were plated in a 6-well plate at a concentration of 0.5×10^6 cells/ml, treated with either S-isomer of a compound of formula A (10 μM to 0.1 μM), UBX (100 μg/ml to 0.1 μg/ml), or UBX with S-isomer of a compound of formula A at 1000 nM, and incubated for 72 hrs at 37° C. and 5% CO2. The cells were transferred to microfuge tubes to receive 50 μl of cell cycle reagent and incubated for 30 minutes at RT away from light. Cells were then diluted with 300-400 μl PBS, and a minimum of 10,000 events were acquired on a Guava® easyCyte™ flow cytometer. The data was analyzed with Express Pro software and the percentage of the cell population in different cell cycle stages with respect to control was presented in histograms.
# [2] = test system: Daudi, RPMI-8226, Raji, and U266B1 cells; assay: in situ caspase-3 kit, apoptosis (Example 3), cell lines tested; type: cell-based; conditions: 24 hrs
# Experimental: In order to determine the effect of S-isomer of a compound of formula A, UBX, and combinations thereof on apoptosis in cancer cells, an in situ caspase-3 kit (Millipore) was used. Cells were plated in a 6 well plate at a concentration of 0.5×10^6 cells/ml, treated with either S-isomer of a compound of formula A (1000 nM), UBX (100 μg/ml to 0.1 μg/ml), or UBX with S-isomer of a compound of formula A at 1000 nM, and incubated for 24 hrs at 37° C. and 5% CO2. The cells were then transferred to microfuge tubes to receive 10 μl of freshly prepared FLICA™ reagent and incubated for 1 hour at 37° C. and 5% CO2 away from light. After extensive washes with wash buffer, test samples were adjusted to equalize the number of cells in PBS. 100 μl of each cell suspension was transferred to black 96-well plates in duplicates, and the fluorescence was read at an excitation wavelength of 490 nm and an emission wavelength of 520 nm in a plate reader. The fluorescence intensity for a DMSO control was subtracted from that of test compounds. Data was expressed as a percent of the maximum response (100%) and plotted accordingly.
# CD19+ B-cell = assay: LPS-induced proliferation in HWB, flow cytometry, CD19; type: cell-based, human; conditions: 72 hrs
# Experimental: Flow cytometry was used to study the effect of S-isomer of a compound of formula A, Ubx, and combinations thereof on LPS-induced proliferation of CD19 and CD20 cells in HWB. In these experiments, 250 μl of diluted (1:3.5 with RPMI-HG Media) HWB sample was treated with either S-isomer of a compound of formula A (10 μM to 0.1 μM), UBX (100 μg/ml to 0.1 μg/ml) or UBX with S-isomer of a compound of formula A at 1000 nM for 15 minutes followed by 20 μg/ml LPS induction and incubated for 72 hrs at 37° C. and 5% CO2. 20 μl of treated sample was taken in a 1.5 ml centrifuge tube and labeled with CD20 FITC and CD19 PE antibody and incubated in the dark for 1 hour at RT. 1 ml of RBC lysing solution was added and tubes were centrifuged at 3000 rpm for 10 minutes. Supernatant was aspirated, and 250 μl of PBS was added to the pellet. Tubes were vortexed, and 5000 events were acquired on a Guava® easyCyte™ flow cytometer and analyzed with Incyte Software.
# Gated population of lymphocytes positive cells were further analyzed for CD19 and CD20. Cells positive for CD19 and/or CD20 were calculated, and data were expressed as the percentage positive cells in the population. The loss of positive population from control with LPS induction was calculated and expressed as % inhibition with respect to control.
molecule,measurement,setting,value
"CC(C)Oc1ccc(-c2nn([C@@H](C)c3oc4ccc(F)cc4c(=O)c3-c3cccc(F)c3)c3ncnc(N)c23)cc1F [S-isomer, (S)-2-(1-(4-amino-3-(3-fluoro-4-isopropoxyphenyl)-1H-pyrazolo[3,4-d]pyrimidin-1-yl)ethyl)-6-fluoro-3-(3-fluorophenyl)-4H-chromen-4-one]",inhibition at 1 µM,CD20+ cells,~40%
same,Caspase 3 Activity,Raji Cells; S-isomer 200 nM,0.36
same,Caspase 3 Activity,Raji Cells; S-isomer 1000 nM,0.56
same,Caspase 3 Activity,Raji Cells; S-isomer 5000 nM,0.80
same,Caspase 3 Activity,LY1 Cells; S-isomer 200 nM,0.06
same,Caspase 3 Activity,LY1 Cells; S-isomer 1000 nM,0.17
same,Caspase 3 Activity,LY1 Cells; S-isomer 5000 nM,0.61
same,cytotoxic to B-cells,B-cells,not cytotoxic
same,cell cycle effect,[1],dose-dependent G2/M arrest
same,Caspase-3 activity increase,"[2]; 1 μM, cell lines",40-75%
same,inhibition at 1 µM,"CD19+ B-cell; Homo sapiens, B-cell, 1 μM",~60%
"UBX: monoclonal antibody that targets a specific and unique epitope on CD20, bioengineered for enhanced clinical activity and potency (antibody, V domains shown, antibody fragment) VH: QAYLQQSGAELVRPGASVKMSCKASGYTFTSYNMHWVKQTPRQGLEWIGGIYPGNGDTSYNQKFKGKATLTVGKSSSTAYMQLSSLTSEDSAVYFCARYDYNYAMDYWGQGTSVTVSS VL: QIVLSQSPAILSASPGEKVTMTCRASSSVSYMHWYQQKPGSSPKPWIYATSNLASGVPARFSGSGSGTSYSFTISRVEAEDAATYYCQQWTFNPPTFGGGTRLEIK",Caspase 3 Activity,Raji Cells; UBX 10 ng/ml,0.18
same,Caspase 3 Activity,Raji Cells; UBX 100 ng/ml,0.31
same,Caspase 3 Activity,Raji Cells; UBX 1000 ng/ml,0.51
same,Caspase 3 Activity,"Raji Cells; UBX 10,000 ng/ml",0.60
same,caspase-3 activity,Raji Cells; Raji,induced
same,caspase-3 activity,"LY1 Cells; LY1, 24 hrs",induced
same,Caspase 3 Activity,LY1 Cells; UBX 10 ng/ml,0.23
same,Caspase 3 Activity,LY1 Cells; UBX 100 ng/ml,0.32
same,Caspase 3 Activity,LY1 Cells; UBX 1000 ng/ml,0.53
same,Caspase 3 Activity,"LY1 Cells; UBX 10,000 ng/ml",0.59
same,ability to induce Caspase-3 activity,[2]; cell lines tested,limited ability
same,effect on CD19+ cells (LPS-induced proliferation),CD19+ B-cell,minimal effect
